This passage reports HI activity and Neutralizing activity (%) results from patent US20160200799A1.

Holding throughout (experiment): cell-based or functional assay
For assay [1], the target named is Influenza virus A/Brisbane/59/2007 (H1N1) (Influenza A virus A/Brisbane/59/2007 (H1N1)).
Assay [2] concerns the target Influenza virus A/California/7/2009pdm (H1N1pdm) (Influenza A virus A/California/7/2009pdm (H1N1pdm)).
Assay [3] concerns the target Influenza virus A/Indonesia/5/2005/PR8-IBCDC-RG2 (H5N1) (Influenza A virus A/Indonesia/5/2005/PR8-IBCDC-RG2 (H5N1)).
Assay [4] deals with Influenza virus A/Panama/2007/1999 (H3N2) (Influenza A virus A/Panama/2007/1999 (H3N2)).
The target of assay [5] is Influenza virus A/Suita/1/2009pdm (H1N1 2009 pandemic) (Influenza A virus A/Suita/1/2009pdm (H1N1pdm)).

Where only a bound is given, the exact number is not on record here.

B1: Group 55 representative clone F083-305, Fab-PP-type antibody (Fab, V domains shown)
VH: EVQLVESGAEVKKPGSSVKVSCKASGSIFSNYAISWVRQAPGQGLEWMGGIVPMFGTTRFAQKFQGRVTITADESRSTAYMELNNLISEDTAVYYCARAPLIYNWYFDLWGRGTLVTVSS
VL: EIVLTQSPSFVSASVGDRVSITCRASQGISSWLAWYQQKPGKAPRLLIYGASNLQSGVPSRFSGSGSGTDYTLTINSLQPEDFATYYCQQARTFPVTFGQGTKLEIK
As to B1, the HI activity in assay [1] and in assay [2] was over 160 µg/mL throughout. In addition, the Neutralizing activity (%) at 100 µg/ml was 96.1% in assay [1], 2.4% in assay [3], -17.1% in assay [4] and 88.3% in assay [5]. The Neutralizing activity (%) at 250 µg/ml in assay [1] is 96.1%; in assay [3], 22.4%; in assay [4] it was -6.8%; in assay [5], 69.5%.

B2: Group 56 representative clone F083-318, Fab-PP-type antibody (Fab, V domains shown)
VH: EVQLVQSGAEVKKPGSSVKVSCQASGSIFSNYAINWVRQAPGQGLEWMGGIVPIFGTTRFAQKFQGRLTITADEPRSTAYMELNNLISEDTAVYYCARAPLIYNWYYDLWGRGTLVTVSS
VL: EIVLTQSPSSLSASVGDRVTITCRASQGISNYLAWYQQKPGKVPKLLIYAASTLQSGVPSRFSGSGSGTDFTLTISSLQPEDVATYYCQKYNSAPHTFGPGTKVDIK
Consider B2, for which the HI activity in assay [1] and in assay [2] was over 160 µg/mL each time. Besides, the Neutralizing activity (%) at 100 µg/ml in assay [1] was 84.2%; in assay [3] it was -9.5%; in assay [4], 7.5%; in assay [5], 13.5%. Besides, the Neutralizing activity (%) at 250 µg/ml in assay [1] amounted to 92.1%; in assay [3], 1.7%; in assay [4], 7.5%; in assay [5] it was 27.9%.

B3: Group 51 representative clone F083-302, Fab-PP-type antibody (Fab, V domains shown)
VH: QVQLVQSGAEVKKPGSSVKVSCEASGATFSSNAFSWVRQAPGQGPEWMGGIITMFRKAEYAQKFQGRVTITAGELGSTAYMEVRSLTFEDTAVYYCARHSGYHLIGYFDSWGQGTLVTVSS
VL: QSVLTQPPSVSAAPGQKVTISCSGTTSNIGNNYVSWYQQLPGAAPKLLIYDNNKRPSGIPDRFSGSKSDTSATLGITGLQTGDEADYYCGTWVSSLSVWVFGGGTKLTVLG
In the case of B3, the HI activity in assay [1] and in assay [2] was over 160 µg/mL throughout. Moreover, the Neutralizing activity (%) at 100 µg/ml turned out to be 98% in assay [1], 72.9% in assay [3], 3.4% in assay [4] and 100% in assay [5]. For the same molecule, the Neutralizing activity (%) at 250 µg/ml is 98% in assay [1], 85.9% in assay [3], -11% in assay [4] and 100% in assay [5].

B4: Group 58 representative clone F083-307, Fab-PP-type antibody (Fab, V domains shown)
VH: QVQLQQSGADVKKPGSSVKVSCKASGGTFGNYAISWVRQAPGQGLEWMGGITPIFGPANYAQRFQGRVTISADISTRTAYMELSSLRSEDTAIYYCARHPTYYFGSAMEYWGQGTLVTVSS
VL: SYELTQPPSVSVAPGQTATITCGGDRIGTGPVHWYQQRPGRAPVLIIYGSTHRPSGIPERFSGSKSVNTATLSISGVGVGDEADYYCQVWDTSTAQPIVFGGGTKLTVLS
For B4, the HI activity in assay [1] and in assay [2] was over 160 µg/mL each time. Besides, the Neutralizing activity (%) at 100 µg/ml in assay [1] is 100%; in assay [3], 28.8%; in assay [4] it was -6.8%; in assay [5], 76.6%. In addition, the Neutralizing activity (%) at 250 µg/ml was 100% in assay [1], 31.8% in assay [3], 11.6% in assay [4] and 54.8% in assay [5].

B5: Group 57 representative clone F083-103, Fab-PP-type antibody (Fab, V domains shown)
VH: QVQLQQSGADVKKAGSSVKVSCKASGRTFGNYAISWVRQAPGQGLEWMGGITPIFGAANYAQKFQGRVTISADLSTRMVYMDLSSLRSDDTAFYYCAGHPTYHYGSAMDYWGQGTLVTVSS
VL: QSVLTQPPSVSAAPGQKVTITCSGSSSNIGNNYVSWYQQLPGTAPKLLISEGSNRPSGIPDRFSGSKSGTSATLGITGLQTGDEATYYCATWDDSLSVVLFGGGTRLTVLS
Take B5: the HI activity in assay [1] and in assay [2] was over 160 µg/mL in each case. Moreover, the Neutralizing activity (%) at 100 µg/ml came out at 84.2% in assay [1], 30% in assay [3], 11% in assay [4] and 60.2% in assay [5]. Also, the Neutralizing activity (%) at 250 µg/ml in assay [1] came to 92.1%; in assay [3], 61.2%; in assay [4], 13.7%; in assay [5] it was 83.8%.

B6: Group 80 representative clone F083-373, Fab-PP-type antibody (Fab, V domains shown)
VH: QVQLVQSGADVKKPGSSVRVSCKASGRTFGNYAISWVRQAPGQGLEWMGGITPIFGAANYAQKFQGRVTISADLSTTMVYMDLSSLRSDDTAFYYCAGHPTYYYGSPMDYWGQGTLVTVSS
VL: EIVLTQSPSSLSASVGDRVTITCRASQSIATYLNWYQQKPGKAPNLLIYAASNLQSGVPSRFSGSGSGTDFTLTISSLQPEDFATYVCLQSYSATLTFGGGTKVEIK
Take B6: the HI activity in assay [1] and in assay [2] was over 160 µg/mL each time. The Neutralizing activity (%) at 100 µg/ml is 70.4% in assay [1], -3.3% in assay [3], -6.9% in assay [4] and 1.9% in assay [5]. The Neutralizing activity (%) at 250 µg/ml in assay [1] was 74.3%; in assay [3], 15.4%; in assay [4] it was -21.2%; in assay [5], 7.7%.

B7: Group 59 representative clone F083-351, Fab-PP-type antibody (Fab, V domains shown)
VH: QVQLVQSGADVKKAGSSVKVSCKASGRTFGNYAISWVRQAPGQGLEWMGGITPIFGAANYAQKFQGRVTISADLSTRMVYMDLSSLRSDDTAFYYCAGHPMYHYGSAMDYWGQGTLVTVSS
VL: QSVLTQPPSASGTPGQRVSISCFGSRSNVGSSSVNWYQQLPGRAPKLLIQRNDQRPSGVPDRFSGSKSGTSASLAISGLQSDDESTYYCAAWDDSVKSVVFGGGTQLTVLG
For B7, the HI activity in assay [1] and in assay [2] was over 160 µg/mL each time. Moreover, the Neutralizing activity (%) at 100 µg/ml in assay [1] is 100%; in assay [3], -2.7%; in assay [4], -6.8%; in assay [5], 88.5%. The Neutralizing activity (%) at 250 µg/ml was 100% in assay [1], 5.4% in assay [3], -6.6% in assay [4] and 85.6% in assay [5].
